We go through four substances from paper doi:10.1101/2021.11.08.467404.

Test [1] has as its target microtubules polymerised from porcine brain tubulin (porcine) (UniProt P02550). Nature of the test: FRAP of fluorescent protein on immobilised microtubules.
Test [2] shares this target. Nature of the test: single-molecule TIRF microscopy on immobilised microtubules.
The target is the same in test [3]. Put plainly: TIRF microscopy of fluorescent protein on immobilised microtubules.

Chain of UniProt P02550 (P02550 whole entry): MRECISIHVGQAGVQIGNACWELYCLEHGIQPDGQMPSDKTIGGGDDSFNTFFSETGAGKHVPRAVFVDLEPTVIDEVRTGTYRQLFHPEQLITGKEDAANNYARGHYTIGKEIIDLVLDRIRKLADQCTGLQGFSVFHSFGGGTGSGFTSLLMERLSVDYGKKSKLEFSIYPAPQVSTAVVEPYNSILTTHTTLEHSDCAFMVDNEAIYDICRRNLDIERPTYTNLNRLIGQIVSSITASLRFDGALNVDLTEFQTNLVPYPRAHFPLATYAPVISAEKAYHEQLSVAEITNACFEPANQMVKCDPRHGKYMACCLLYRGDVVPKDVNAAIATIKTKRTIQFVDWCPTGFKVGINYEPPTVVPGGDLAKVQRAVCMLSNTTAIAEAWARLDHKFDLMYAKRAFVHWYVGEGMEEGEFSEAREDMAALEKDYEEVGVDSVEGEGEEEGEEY

For the substance GFP-MAP2c (natural protein), the fold turnover (FRAP) outside against inside envelopes in test [1] is 4 fold. As for TMR-MAP2c (natural protein), the fold increase of dwell time inside GFP-MAP2c envelopes against outside in test [2] was found to be 3 fold. With “TMR-MAP4 (full-length human MAP4, isoform 1) (from UniProt P27816 1-1152) (natural protein)”, the fold dwell time of single molecules against MAP2c in test [2] came out at 2 fold. In test [3], “kinesin-1-GFP (from UniProt P33176 1-963) (natural protein)” displayed a landing rate (with 600 nM tau-mCherry) of 0.23 μm^-1s^-1.
